Assay [1] relates to cynomolgus ABCC4. The assay can be described thus: Flow cytometry (FACS) binding to C6 cells stably transfected to express cynomolgus ABCC4 (different experiment, different C6.cC4 cell line, Table 4). Particulars: for Cynomolgus ABCC4 binding: different C6.cC4 cell line, C6 cells stably transfected to express cynomolgus ABCC4, FACS, Table 4; for binding to cynomolgus ABCC4 expressed on cell surface: Table 4 study, stated in words. Also noted: key to Cynomolgus ABCC4 binding: Negative (−)=Rmax (MFI) below background level; Positive (+)=MFI>3× background level. In short, it runs like this:
(§1)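 Murine C6 cells stably expressing FLAG-tagged human or cynomolgus ABCC4 incubated 30 min on ice with antibodies, either 5 ug/mL or serially diluted from 100 ug/mL, in PBS+2% FBS+0.02% azide. Detection with PE anti-human IgG F(ab′)2 by flow cytometry; EC50 at half-maximal MFI; negative below background, positive >3× background.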

Assay [2] deals with cynomolgus ABCC4. The assay can be described thus: Flow cytometry (FACS) binding to C6 cells stably transfected to express cynomolgus ABCC4 (Table 3 study). As to conditions: C6 cells stably transfected to express cynomolgus ABCC4, FACS; Table 3. Also noted: key to Cynomolgus ABCC4 binding: Negative (−) is defined as maximum response (Rmax(MFI)) below background level; Positive (+) is defined as MFI>1000. The protocol: (§2) Binding titration of recombinant antibodies to ABCC4 transfectants was performed by serial dilution of antibodies from about 666 nM. Diluted antibody in flow cytometry buffer was incubated with cells on ice for 30 min. After 2 washes with flow cytometry buffer, bound antibody was detected with PE-labeled F(ab′)2 fragment goat anti-human IgG (Jackson ImmunoResearch) diluted 1:200 in flow cytometry buffer and incubated with cells for 20 min on ice. After 2 washes with flow cytometry buffer fluorescence was measured on an Attune N×T flow cytometer. Data were analyzed with GraphPad Prism 8.0 software to determine EC50's.
(§3) Human embryonic kidney HEK 293T cells and murine C6 (ATCC CCL-107) were transfected with human or cynomolgus ABCC4 cDNA with C-terminal fused FLAG tag in a pMONO-hygro vector with Lipofectamine 3000 (Invitrogen #L3000001). The cells were treated with 0.2 mg/ml and 0.5 mg/ml hygromycin respectively for about 2 weeks while cultivated in DMEM and 10% FBS with 0.2 mg/ml hygromycin and 0.5 mg/ml hygromycin, respectively. The cells were washed with PBS, and stained with […] of anti-FLAG-PE after fixing and permeablization. Clones expressing ABCC4 were single-cell sorted into 200 μl DMEM with 10% FBS using a BD Aria FACS machine and cultivated in 96 well plates using standard techniques in an incubator at 37° C. and 5% CO 2. Two weeks later clones expressing high levels of ABCC4 were screened and amplified.
(§4) Antibody binding to cells was evaluated by flow cytometry. Murine C6 cells stably transfected to express human or cynomolgus ABCC4 were washed once in flow cytometry buffer (PBS+2% FBS+0.02% sodium azide), resuspended at 2×10^6 cells/mL in flow cytometry buffer, and dispensed into 96-well microtiter plates at 0.1 mL/well. Recombinant antibodies were added to cells at 5 ug/mL for initial binding confirmation, or serially diluted from 100 ug/mL in flow cytometry buffer. After incubating cells on ice for 30 min, cells were washed twice with flow cytometry buffer. Bound antibody was detected with PE-labeled F(ab′)2 fragment goat anti-human IgG (Jackson ImmunoResearch) and evaluated on an Attune N×T flow cytometer. EC50 is calculated to be the concentration of antibody that gives half maximal response.
(§5) Table 3 lists the following characteristics of the rat anti-ABCC4 antibodies tested: binding to C6 cells stably transfected to express human ABCC4 measured by FACS and binding to C6 cells stably transfected to express cynomolgus ABCC4 measured by FACS. Negative (−) is defined as maximum response (Rmax(MFI)) below background level. Positive (+) is defined as MFI>1000.

In assay [3] the target is T1, human ABCC4 (Homo sapiens, UniProt O15439).
T1 construct: expressed in transfected cells
T1 sequence (O15439 1-1325): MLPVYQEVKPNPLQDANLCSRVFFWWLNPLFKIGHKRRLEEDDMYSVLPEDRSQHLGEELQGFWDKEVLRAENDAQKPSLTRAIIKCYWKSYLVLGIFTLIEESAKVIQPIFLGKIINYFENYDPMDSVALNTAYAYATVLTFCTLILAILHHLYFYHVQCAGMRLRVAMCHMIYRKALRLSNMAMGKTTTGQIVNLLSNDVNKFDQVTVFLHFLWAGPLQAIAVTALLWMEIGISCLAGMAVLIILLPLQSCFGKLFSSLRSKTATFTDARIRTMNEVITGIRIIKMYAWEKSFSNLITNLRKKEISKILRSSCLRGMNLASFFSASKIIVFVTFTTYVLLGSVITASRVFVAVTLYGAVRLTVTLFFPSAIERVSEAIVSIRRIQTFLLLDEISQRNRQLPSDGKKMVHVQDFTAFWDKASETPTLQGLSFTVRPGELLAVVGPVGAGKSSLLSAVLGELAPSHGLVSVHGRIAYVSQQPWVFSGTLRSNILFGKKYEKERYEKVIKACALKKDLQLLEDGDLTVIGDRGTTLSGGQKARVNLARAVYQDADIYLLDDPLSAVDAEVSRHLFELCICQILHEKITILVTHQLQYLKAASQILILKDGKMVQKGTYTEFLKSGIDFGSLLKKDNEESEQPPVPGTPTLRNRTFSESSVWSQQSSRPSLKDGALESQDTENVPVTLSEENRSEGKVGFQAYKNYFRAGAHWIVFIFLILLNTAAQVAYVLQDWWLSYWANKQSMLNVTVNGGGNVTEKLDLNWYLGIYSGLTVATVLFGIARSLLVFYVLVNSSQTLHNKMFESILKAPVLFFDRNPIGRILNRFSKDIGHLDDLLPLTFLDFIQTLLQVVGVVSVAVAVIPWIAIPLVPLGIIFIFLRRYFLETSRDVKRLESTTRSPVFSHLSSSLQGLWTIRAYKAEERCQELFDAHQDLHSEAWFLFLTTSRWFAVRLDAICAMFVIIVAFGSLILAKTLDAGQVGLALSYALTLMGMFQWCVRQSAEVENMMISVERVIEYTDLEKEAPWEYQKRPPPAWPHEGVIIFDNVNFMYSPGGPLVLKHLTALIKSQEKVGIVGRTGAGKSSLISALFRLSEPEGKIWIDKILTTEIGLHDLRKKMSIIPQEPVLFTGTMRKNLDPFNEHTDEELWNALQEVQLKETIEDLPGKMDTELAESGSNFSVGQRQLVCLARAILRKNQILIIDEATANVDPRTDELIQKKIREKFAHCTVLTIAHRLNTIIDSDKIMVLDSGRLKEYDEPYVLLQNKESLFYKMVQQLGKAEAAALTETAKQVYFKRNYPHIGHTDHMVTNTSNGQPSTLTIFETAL
The assay can be described thus: Flow cytometry (FACS) binding to C6 cells stably transfected to express human ABCC4 (Table 3 study). As to conditions: C6 cells stably transfected to express human ABCC4, FACS; Table 3. The protocol:
as §2, §3, §4, §5
In general terms: A flow cytometer gives signals particle by particle.

In assay [4] the target is T1, human ABCC4. The assay can be described thus: Flow cytometry (FACS) binding to C6 cells stably transfected to express human ABCC4 (different experiment, Table 4). As to conditions: for Human ABCC4 binding: C6 cells stably transfected to express human ABCC4, FACS, different experiment, Table 4; for binding to human ABCC4 expressed on cell surface: Table 4 study, stated in words. In outline:
as §1

Assay [5] concerns the target T2, human ABCC4 (human, UniProt O15439 1-1325).
T2 construct: Expressed on murine C6 cells stably transfected with human ABCC4 cDNA with C-terminal FLAG tag; also called MRP4; Multidrug resistance protein 4; not shown: C-terminal fused FLAG tag
T2 sequence: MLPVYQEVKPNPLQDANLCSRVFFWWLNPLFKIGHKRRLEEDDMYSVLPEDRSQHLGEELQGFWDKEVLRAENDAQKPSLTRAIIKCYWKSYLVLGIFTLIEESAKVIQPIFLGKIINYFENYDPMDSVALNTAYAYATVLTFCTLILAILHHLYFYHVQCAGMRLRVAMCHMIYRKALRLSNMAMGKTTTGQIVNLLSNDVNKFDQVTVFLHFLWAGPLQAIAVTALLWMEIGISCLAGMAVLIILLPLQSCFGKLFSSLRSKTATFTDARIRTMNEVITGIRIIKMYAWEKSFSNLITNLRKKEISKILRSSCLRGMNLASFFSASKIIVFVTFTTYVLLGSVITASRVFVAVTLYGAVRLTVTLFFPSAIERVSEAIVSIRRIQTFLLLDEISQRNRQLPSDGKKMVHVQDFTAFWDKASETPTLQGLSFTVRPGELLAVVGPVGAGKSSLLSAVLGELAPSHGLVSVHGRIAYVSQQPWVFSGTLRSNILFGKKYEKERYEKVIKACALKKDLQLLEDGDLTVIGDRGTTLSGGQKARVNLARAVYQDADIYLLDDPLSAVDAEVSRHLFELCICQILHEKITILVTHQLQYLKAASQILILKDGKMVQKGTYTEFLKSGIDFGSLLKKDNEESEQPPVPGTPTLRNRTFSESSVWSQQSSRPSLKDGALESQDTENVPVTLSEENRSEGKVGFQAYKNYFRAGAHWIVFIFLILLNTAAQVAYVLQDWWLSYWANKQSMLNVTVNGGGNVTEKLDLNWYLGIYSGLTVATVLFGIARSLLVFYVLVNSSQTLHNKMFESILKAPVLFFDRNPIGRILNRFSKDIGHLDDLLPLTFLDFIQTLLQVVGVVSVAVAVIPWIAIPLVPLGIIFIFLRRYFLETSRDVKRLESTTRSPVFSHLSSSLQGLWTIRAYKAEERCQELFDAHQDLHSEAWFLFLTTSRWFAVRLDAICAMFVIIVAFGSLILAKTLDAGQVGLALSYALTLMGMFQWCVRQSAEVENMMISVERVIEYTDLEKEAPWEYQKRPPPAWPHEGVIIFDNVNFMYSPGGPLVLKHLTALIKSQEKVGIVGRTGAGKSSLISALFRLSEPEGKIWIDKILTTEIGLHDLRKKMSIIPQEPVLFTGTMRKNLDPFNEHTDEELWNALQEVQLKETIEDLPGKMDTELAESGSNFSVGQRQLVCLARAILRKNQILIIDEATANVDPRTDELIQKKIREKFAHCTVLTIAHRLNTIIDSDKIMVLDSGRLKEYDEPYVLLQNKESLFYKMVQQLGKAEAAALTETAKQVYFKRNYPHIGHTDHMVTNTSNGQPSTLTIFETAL
The assay can be described thus: FACS, C6 cells stably expressing human ABCC4; + = MFI>3x background. The protocol: as §4, with “2×10\hat{ }6” for “2×10^6”, “F(ab′)₂” for “F(ab′)2”

B1: C4.925: anti-ABCC4 antibody raised in rats; VH SEQ ID NO: 3, VL SEQ ID NO: 126 (antibody, V domains shown)
VH: EVQLVESGGGLVQPGRSLKLSCAASGFTFSDYYMAWVRQAPTKGLEWVAYINYDGGSTHYGDSVKGRFTISRDNEKSTLYLQMNSLRSEDMATYYCARENYGYNSFDYWGQGASVTVSS
VL: DIQVTQSPASLSASLGETISIECLTSEDISSYLTWYQQKPGKSPHLLIYGANSLQAGVPSRFSGSGSGTQYSLKISSMQPEDEGDYFCQQSYKFPLTFGSGTKLELK
B1: the “Cynomolgus ABCC4 binding” value in the assay with cynomolgus ABCC4 [1] and with cynomolgus ABCC4 [2] was “−” each time. Moreover, the “Human ABCC4 binding” value in the assay with human ABCC4 [3] is recorded as “+ (Positive (+) is defined as MFI>1000)”; in the assay with human ABCC4 [4], “+ (Positive (+)=MFI>3× background level)”.

B2: C4.1054 (antibody, V domains shown)
VH: QVQLLQSGAALVKPGASVKMSCKPSGYTFTDYWVSWVKQSHGKSLEWIGEIYPNNGATNFNEKFKGKATLTVDKSTSTAYMELSRLTSEDSAIYYCPSRKYGYNWNFDYWGQGTMVTVSS
VL: DIVLTQSPALAVSLGQRATISCRARQSVSISRYNLMHWYQQKPGQQPKVLIYRASNLASGIPARFSGSGSGTDFTLTIDPVQADDIATYYCQQSRDSPWTFGGGTKLELK
For B2, in the assay on cynomolgus ABCC4 [1], the “binding to cynomolgus ABCC4 expressed on cell surface” value is “bind to both human and cynomolgus ABCC4”; the “Cynomolgus ABCC4 binding” value is “+ (Positive (+)=MFI>3× background level)”. Also, the binding result in the assay with human ABCC4 [5] is “binds”. In the assay with human ABCC4 [4], the “Human ABCC4 binding” value is reported as “+ (Positive (+)=MFI>3× background level)”; the “binding to human ABCC4 expressed on cell surface” value was “bind to both human and cynomolgus ABCC4”.

B3: C4.1131 (antibody, V domains shown)
VH: EVKLVESDGGLVQPRKSLKLSCAASGFTFTDYYMAWVRQGPTMGLEWVATISNDGSTKYYRDSVKGRFTLSRDNAKTTLHLQMDSLRSEDTATYYCARLTIRYKGVMDAWGQGASVTVSS
VL: DVVMTQSPSHLAASPGESVSINCKASKNIYKYLAWYQQKPGKTNKLLIYSGSTLQSGTPSRFSGSGSGSDFTLTIRNLEPEDFGLYYCQHHNEYPPTFGGGTKLEIK
Take B3: in the assay with cynomolgus ABCC4 [1], the “binding to cynomolgus ABCC4 expressed on cell surface” value is “bind to both human and cynomolgus ABCC4”; the “Cynomolgus ABCC4 binding” value is listed as “+ (Positive (+)=MFI>3× background level)”. In addition, the binding result with human ABCC4 [5] is given as “binds”. Further, in the assay with human ABCC4 [4], the “Human ABCC4 binding” value was “+ (Positive (+)=MFI>3× background level)”; the “binding to human ABCC4 expressed on cell surface” value was “bind to both human and cynomolgus ABCC4”.
